Reference: publication PMC4180279 (Biochemistry, 2014)

Legend:
[1] = target: T1, NCS-1 (Homo sapiens, UniProt P62166); experiment: In vitro pull-down binding of NCS-1 to GST-PQ constructs, Western blot densitometry; details: for average NCS-1 bound: 5 μM GST fusion protein, 5 μM NCS-1, 1 h, 4 °C, pH 7.4, normalized: NCS-1 bound to GST-PQ with Ca2+ = 100%, minimal binding without Ca2+ = 0%, mean of n = 3
T1 construct: His tag (TEV-cleavable) (N, cleaved yes); made in house; host or cells: Escherichia coli BL21(DE3)

[2] = tested on: CaM; experiment: In vitro pull-down binding of CaM to GST-PQ constructs, Western blot; design: species or system human; details: presence or absence of 1 μM free Ca2+
Text: DNA constructs and molecular biology GST-NCS-1[24] and NCS-1-mCherry[18] plasmids were as previously described. The coding sequence for human CaM was amplified by polymerase chain reaction (PCR) from oligo-dT(15)-primed HeLa cell RNA and reverse-transcribed first-strand cDNA template with the following primer pair (based on GenBank accession number M19311) containing restriction endonuclease sites (underlined) for subcloning into N-terminal GST tag vector pGex6P-1 (Amersham Biosciences): sense (BamHI), 5′-[…]-3′; antisense (XhoI), 5′-[…]-3′. GST-P/Q, encoding residues 1898–2035 of the rat P/Q channel α1 subunit (GenBank accession number NM_012918) was amplified by PCR from a rat brain single-strand cDNA template with the following primer pair containing restriction endonuclease sites (underlined) for subcloning into pGex6P-1: sense (BamHI), 5′-[…]-3′; antisense (XhoI), 5′-[…]-3′. GST-CBD (residues 1950–2035) of the rat P/Q channel α1 subunit was amplified by PCR from the GST-P/Q template using the P/Q reverse primer and a sense primer containing a BamHI site (underlined) for subsequent subcloning into pGex6P-1 (5′-[…]-3′). GST-P/Q^IM→EE was generated by site-directed mutagenesis of the GST-P/Q plasmid using the QuikChange reagents and protocol (Agilent Technologies) and the following primer pair: sense, 5′-[…]-3′; antisense, 5′-[…]-3′.
For the In vitro protein binding assays, 5 μM GST fusion protein (GST-P/Q, GST-P/Q^IM→EE, or GST-CBD) was immobilized onto 30 μL of glutathione-agarose resin (Thermo Scientific) that had been prewashed in binding buffer (BB) [150 mM KCl, 20 mM HEPES (pH 7.4), 10% (v/v) glycerol, 5 mM NTA, 5 mM EGTA, 1 mM DTT, and 0.1% (v/v) NP-40] or BB supplemented with 1 μM free Ca^2+ (BB+Ca^2+) by incubation for 30 min with constant agitation at 4 °C. […]
Nitrocellulose filters were blocked by incubation in a blocking solution [3% (w/v) skim milk powder in PBS] for 1 h at room temperature. […] Densitometry analysis of developed Western blots was performed using Quantity-1 (Bio-Rad). […]

[3] = tested on: HeLa cells; experiment: Localization of fluorescently tagged proteins in HeLa cells, confocal imaging, puncta scoring; assay type: cell-based; details: for cells with puncta: 24 h post-transfection, means ± SEM
Text: Myristoylated PQ (residues 1898–2035, ^myrPQ-YFP) was constructed as follows. A DNA fragment encoding the myristoylation sequence taken from ref ([25]) was inserted between the XhoI and HindIII sites of pEYFP-N1 (Clontech) to generate p^myrEYFP-N1. PQ^1898–2035 was amplified by PCR from the existing pGex template with the following primer pair containing restriction endonuclease sites (underlined) for subsequent subcloning into p^myrEYFP-N1: sense (HindIII), 5′-ATAT AAGCTTAAGTCCACGGACCTGACAGTG-3′; antisense (SacII), 5′-ATAT CCGCGGGGGGAGGTAGTGTTCGCTGTC-3′. All constructs were verified by dideoxy sequencing (The Sequencing Service, University of Dundee, Dundee, U.K.).
HeLa cells were cultured in DMEM supplemented with 10% (v/v) fetal bovine serum, 1% (v/v) penicillin/streptomycin, and 1% (v/v) nonessential amino acids. All cells were maintained in a humidified 95% air/5% CO2 atmosphere at 37 °C. Cells were plated onto sterile 13 mm round coverslips at a density of 0.25 × 10^6 cells/well. After 24 h, cells were transiently transfected with the indicated expression vectors using GeneJuice transfection reagent (Novagen) according to the manufacturer’s protocol. For single and double transfections, 1 μg of each plasmid was used.
Twenty-four hours post-transfection, cells on coverslips were washed with phosphate-buffered saline [137 mM NaCl, 2.7 mM KCl, 10 mM Na2PO4, and 2 mM NaH2PO4 (pH 7.4)] and then fixed with 4% (v/v) formaldehyde in PBS for 6 min at room temperature. Coverslips were subsequently air-dried and mounted onto microscope slides using Prolong antifade glycerol (Life Technologies). Fixed cells were imaged using a Leica TCS-SP2 confocal system (Leica Microsystems, Heidelberg, Germany) with a pinhole set to 1 Airy unit and a 63× oil immersion objective with a numerical aperture of 1.3. Images were exported as TIFF files and compiled, processed, and analyzed with ImageJ and CorelDraw X6 applications.

[4] = without Ca2+ (5 mM EGTA, 5 mM NTA)

T1 sequence (P62166 whole entry, species assumed, the tested form may be a part): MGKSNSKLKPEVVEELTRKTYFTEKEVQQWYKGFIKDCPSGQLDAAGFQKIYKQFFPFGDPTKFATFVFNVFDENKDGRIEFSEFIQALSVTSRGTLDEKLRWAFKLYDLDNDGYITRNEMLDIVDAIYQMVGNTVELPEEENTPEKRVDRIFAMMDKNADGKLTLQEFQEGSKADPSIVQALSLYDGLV

Molecule | NCS-1 binding (qualitative) ([1]; presence or absence of 1 μM free Ca2+, Western blot) | average NCS-1 bound ([1]; with Ca2+ (1 μM free Ca2+)) [%] | average NCS-1 bound [1, 4] [%] | CaM binding (qualitative) [2] | cellular localization ([3]; HeLa cells, without myrPQ-YFP puncta) | colocalization of soluble mCherry with myrPQ-YFP ([3]; control cotransfection with soluble mCherry, data not shown) | cells with puncta ([3]; control myrPQ-YFP + mCherry, three independent experiments) [%] | cells with puncta ([3]; cotransfected NCS-1-mCherry + myrPQ-YFP, four independent experiments) [%]
GST-PQ: GST-tagged residues 1898–2035 of the rat P/Q channel α1 subunit, encompassing IQ motif and CBD (protein, UniProt P54282 1898-2035, looked up, fragment, GST tag, GST-tagged residues 1898–2035 of the rat P/Q channel α1 subunit, encompassing IQ motif and CBD) KSTDLTVGKIYAAMMIMEYYRQSKAKKLQAMREEQNRTPLMFQRMEPPSPTQEGGPSQNALPSTQLDPGGGLMAQESSMKESPSWVTQRAQEMFQKTGTWSPERGPPIDMPNSQPNSQSVEMREMGTDGYSDSEHYLP | Ca^2+-dependent binding | 100 | 31.2 | Ca^2+-dependent binding | – | – | – | –
^myrPQ-YFP: C-terminally YFP-tagged P/Q 1898–2035 with N-terminal myristoylation consensus sequence (protein, UniProt P54282 1898-2035, looked up, fragment, N-terminal myristoylation sequence, C-terminal YFP tag) KSTDLTVGKIYAAMMIMEYYRQSKAKKLQAMREEQNRTPLMFQRMEPPSPTQEGGPSQNALPSTQLDPGGGLMAQESSMKESPSWVTQRAQEMFQKTGTWSPERGPPIDMPNSQPNSQSVEMREMGTDGYSDSEHYLP | – | – | – | – | plasma membrane and/or large cytosolic puncta | no colocalization | 43.6 ± 3 | 39.5 ± 9.2
GST^IM→EE: GST-PQ with IM residues at positions 1913 and 1914 mutated to glutamic acid (protein, UniProt P54282 1898-2035, looked up, variant I1913E M1914E, GST tag, GST-PQ with IM residues at positions 1913 and 1914 mutated to glutamic acid) KSTDLTVGKIYAAMMEEEYYRQSKAKKLQAMREEQNRTPLMFQRMEPPSPTQEGGPSQNALPSTQLDPGGGLMAQESSMKESPSWVTQRAQEMFQKTGTWSPERGPPIDMPNSQPNSQSVEMREMGTDGYSDSEHYLP | – | – | 2.8 | no detectable binding | – | – | – | –
GST-CBD: GST-tagged CaM-binding domain, residues 1950–2035 of the rat P/Q channel α1 subunit (protein, UniProt P54282 1950-2035, looked up, fragment, GST tag) EGGPSQNALPSTQLDPGGGLMAQESSMKESPSWVTQRAQEMFQKTGTWSPERGPPIDMPNSQPNSQSVEMREMGTDGYSDSEHYLP | – | – | 4.9 | no detectable binding | – | – | – | –
